According to patent publication US7638324 (BURNHAM INSTITUTE FOR MEDICAL RESEARCH, dated 2009):

T1: Bcl-GS (yeast two-hybrid construct) (human, UniProt Q9BZR8 1-241)
T1 construct: Used in yeast two-hybrid assays
T1 sequence: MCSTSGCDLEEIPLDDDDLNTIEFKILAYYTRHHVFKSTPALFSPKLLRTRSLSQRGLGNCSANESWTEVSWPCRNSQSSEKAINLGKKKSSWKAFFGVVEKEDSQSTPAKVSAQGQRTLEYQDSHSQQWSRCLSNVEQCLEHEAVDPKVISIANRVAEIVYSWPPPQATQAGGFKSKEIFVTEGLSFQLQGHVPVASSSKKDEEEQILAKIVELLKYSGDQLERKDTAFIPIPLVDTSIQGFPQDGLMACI

B1: Bak (other, UniProt Q16611 1-211, looked up)
chain: MASGQGPGPPRQECGEPALPSASEEQVAQDTEEVFRSYVFYRHQQEQEAEGVAAPADPEMVTLPLQPSSTMGQVGRQLAIIGDDINRRYDSEFQTMLQHLQPTAENAYEYFTKIATSLFESGINWGRVVALLGFGYRLALHVYQHGLTGFLGQVTRFVVDFMLHHCIARWIAQRGGWVAALNLGNGPILNVLVVLGVVLLGQFVVRRFFKS
B2: Bid (other, UniProt P55957 1-195, looked up)
chain: MDCEVNNGSSLRDECITNLLVFGFLQSCSDNSFRRELDALGHELPVLAPQWEGYDELQTDGNRSSHSRLGRIEADSESQEDIIRNIARHLAQVGDSMDRSIPPGLVNGLALQLRNTSRSEEDRNRDLATALEQLLQAYPRDMEKEKTMLVLALLLAKKVASHTPSLLRDVFHTTVNFINQNLRTYVRSLARNGMD
B3: Bad (other, UniProt Q92934 1-168, looked up)
chain: MFQIPEFEPSEQEDSSSAERGLGPSPAGDGPSGSGKHHRQAPGLLWDASHQQEQPTSSSHHGGAGAVEIRSRHSSYPAGTEDDEGMGEEPSPFRGRSRSAPPNLWAAQRYGRELRRMSDEFVDSFKKGLPRPKSAGTATQMRQSSSWTRVFQSWWDRNLGRGSSAPSQ
B4: GFP-Bcl-GS (ΔBH3) (other)
chain: MCSTSGCDLEEIPLDDDDLNTIEFKILAYYTRHHVFKSTPALFSPKLLRTRSLSQRGLGNCSANESWTEVSWPCRNSQSSEKAINLGKKKSSWKAFFGVVEKEDSQSTPAKVSAQGQRTLEYQDSHSQQWSRCLSNVEQCLEHEAVDPKVISIANRVAEIVYSWPPPQATQAGGFKSKEIFVTEGLSFQLQGHVPVASSSKKDEEEQILAGSDTAFIPIPLVDTSIQGFPQDGLMACI
notes: The limits of the deletion would have to be derived from the primers; they are not guessed here; also called GFP-Bcl-GS (DBH3); mutant of Bcl-GS lacking the BH3 domain; not shown: N-terminal EGFP and the short vector linker of pEGFP-C1 (Clontech)

Columns and labels:
[1] = biological target: T1, Bcl-GS (yeast two-hybrid construct); assay: yeast two-hybrid
[2] = biological target: T2, GFP-Bcl-GS (human, UniProt P42212 1-238 = GFP, limits assumed); assay: co-immunoprecipitation from lysates of transiently transfected cells
T2 construct: Expressed by transient transfection and immunoprecipitated with polyclonal anti-GFP antibody; also called Bcl-G (short); wild-type Bcl-GS
Description: (§1) For co-immunoprecipitations and immunoblotting, immunoblotting was performed as described previously (Xu and Reed, supra., (1998); Zhang et al., supra., (2000)). For co-immunoprecipitations, cells were cultured in […] benzocarbonyl Valine Alanine Aspartate fluoromethyl-ketone (zVAD-fmk) to prevent apoptosis. Cells were suspended in lysis buffer (50 mM Tris-HCl, pH7.4; 150 mM NaCl; 20 mM EDTA; 50 mM NaF; 0.5% NP-40; 0.1 mM Na_3VO_4; 20 µg/ml Leupeptin; 20 µg/ml Aprotinin; 1 mM dithiothreitol (DTT); and 1 mM phenylmethylsulfonylfluoride (PMSF). Lysates (0.2 ml diluted into 1 ml final volume of lysis buffer) were cleared by incubation with 15 µl of protein G-Sepharose 4B (Zymed; South San Francisco Calif.) and then incubated with 15 µl of polyclonal anti-GFP antibody (Santa Cruz; Santa Cruz Calif.) and 15 µl of protein G at 4° C. overnight. Beads were then washed 4 times with 1.5 mls lysis buffer before boiling in Laemmli sample buffer and performing SDS-PAGE/immunoblotting.

[3] = biological target: Bcl-XL (UniProt Q07817 1-233); assay: co-immunoprecipitation with anti-GFP antibody, anti-Bcl-XL immunoblot
Sequence of Bcl-XL (Q07817 whole entry): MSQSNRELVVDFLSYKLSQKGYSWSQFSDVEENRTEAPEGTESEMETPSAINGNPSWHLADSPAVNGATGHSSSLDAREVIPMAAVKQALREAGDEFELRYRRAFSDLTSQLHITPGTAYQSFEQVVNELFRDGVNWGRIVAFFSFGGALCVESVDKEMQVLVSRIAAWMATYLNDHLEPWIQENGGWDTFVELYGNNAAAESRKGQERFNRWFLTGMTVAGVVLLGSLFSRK
Description: as §1

Binder | binding result [1] | binding result [2] | binding result [3]
B1 | no binding | no binding | 
B2 |  | no binding | 
B3 |  | no binding | 
B4 |  |  | no binding
